Article PMC5785358, “The STENOFOLIA gene from Medicago alters leaf width, flowering time and chlorophyll content in transgenic wheat”

Key:
Assay in all cases: EMSA; 10 mM Tris pH 7.5, 50 mM KCl, 1 mM DTT, 2.5% glycerol, 0.05% NP-40, 5 mM MgCl2, 0.5 mM EDTA, 5 ng/uL poly(dI.dC), 1 ug protein, 100 fmol probe, room temperature 40 min
Details in all cases: protein: recombinant; tags: MBP (N-terminal, pMAL-c2X); label: 3' biotin; blunt
[1] = target: T1, MBP-STF full length (STENOFOLIA) (Medicago truncatula, UniProt G0ZGT3 1-358)
T1 sequence: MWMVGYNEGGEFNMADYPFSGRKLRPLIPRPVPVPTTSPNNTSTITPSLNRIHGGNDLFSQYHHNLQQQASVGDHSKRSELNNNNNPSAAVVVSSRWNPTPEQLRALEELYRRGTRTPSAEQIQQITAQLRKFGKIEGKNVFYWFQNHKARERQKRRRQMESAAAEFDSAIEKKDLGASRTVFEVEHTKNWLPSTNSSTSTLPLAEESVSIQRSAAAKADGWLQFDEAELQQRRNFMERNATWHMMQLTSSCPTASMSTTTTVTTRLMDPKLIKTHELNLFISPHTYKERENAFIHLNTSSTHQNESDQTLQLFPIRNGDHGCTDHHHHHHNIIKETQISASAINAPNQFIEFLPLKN

MBP-STF S3 = target: T2, MBP-STF S3 (Medicago truncatula, UniProt G0ZGT3 1-90)
T2 sequence: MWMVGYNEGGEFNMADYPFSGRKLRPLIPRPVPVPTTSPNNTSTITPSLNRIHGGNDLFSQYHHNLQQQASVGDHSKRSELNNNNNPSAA

MBP-STF S2 = target: T3, MBP-STF S2 (Medicago truncatula, UniProt G0ZGT3 263-358)
T3 sequence: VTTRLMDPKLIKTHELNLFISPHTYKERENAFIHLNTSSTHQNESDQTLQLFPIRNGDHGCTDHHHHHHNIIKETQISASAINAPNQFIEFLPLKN

MBP-STF S1 = target: T4, MBP-STF S1 (Medicago truncatula, UniProt G0ZGT3 1-262)
T4 sequence: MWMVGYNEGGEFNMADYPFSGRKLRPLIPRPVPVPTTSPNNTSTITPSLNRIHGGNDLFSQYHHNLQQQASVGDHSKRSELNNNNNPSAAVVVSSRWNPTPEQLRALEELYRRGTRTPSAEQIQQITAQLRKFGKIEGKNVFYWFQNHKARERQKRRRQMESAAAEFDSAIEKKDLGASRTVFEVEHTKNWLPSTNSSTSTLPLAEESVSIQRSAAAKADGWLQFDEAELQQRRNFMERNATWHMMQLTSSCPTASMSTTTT

B1: TaACC-D1 probe (dsDNA)
DNA 1: TTCTTCCAGGTGAATACACCACAGTAGTAATATGGCATAATCTGACAAGATGAATCTCCTCATCGACCCATCCTTAATGTTGATTTGCTCTCTCTCTGTTTTCGGCGGTGCGTGCAGGTTCTGGACCACGGCATCTC
DNA 2: GAGATGCCGTGGTCCAGAACCTGCACGCACCGCCGAAAACAGAGAGAGAGCAAATCAACATTAAGGATGGGTCGATGAGGAGATTCATCTTGTCAGATTATGCCATATTACTACTGTGGTGTATTCACCTGGAAGAA
- binding result [1]: binds
- binding result (MBP-STF S3): no binding

B2: TaACC-B1 probe (dsDNA)
DNA 1: TTCTTCCAGGTGAATACACAGCACTAACATGGCATAATCTGACAGGATAAATCTCCTTATCGATCTATCCTTAATGCTCATCTGCTCTCTCTCTCTCTCTCTCTCTCTTTTTCGGTGGTGCGTGCAGGTCCTGGACCACGGCATCTCGACGGAGCTGATGGACAAGGTGGAGAAGATGACCAAGG
DNA 2: CCTTGGTCATCTTCTCCACCTTGTCCATCAGCTCCGTCGAGATGCCGTGGTCCAGGACCTGCACGCACCACCGAAAAAGAGAGAGAGAGAGAGAGAGAGAGCAGATGAGCATTAAGGATAGATCGATAAGGAGATTTATCCTGTCAGATTATGCCATGTTAGTGCTGTGTATTCACCTGGAAGAA
- binding result [1]: binds

B3: TaKN1 probe (TaKN-B1 sequence printed) (dsDNA)
DNA 1: TACTGCAGTATTGCCCTCCAGCTTTTTCCTCTCGCTCCCCATCTCCTTCCCTCTAATGATAGCTTAGAGAGAGAAGGAGAAAAGGCTATTCCGCTCAAGGCAAGGCAGGCAGGTACCCTTCTCCTTCCCCAAACCCAAACCCTTTTTCTCTTTCTCTCCGCCCAAGAACTTCACCTCAAGCTCAATCCGTCT
DNA 2: AGACGGATTGAGCTTGAGGTGAAGTTCTTGGGCGGAGAGAAAGAGAAAAAGGGTTTGGGTTTGGGGAAGGAGAAGGGTACCTGCCTGCCTTGCCTTGAGCGGAATAGCCTTTTCTCCTTCTCTCTCTAAGCTATCATTAGAGGGAAGGAGATGGGGAGCGAGAGGAAAAAGCTGGAGGGCAATACTGCAGTA
- binding result [1]: binds

B4: TaBEL-A1 probe (dsDNA)
DNA 1: GCTTGCGTGTGTGTGCATCAGAGAGAAAGAGAGAGAGAGAGAGGCCTGCCGCCCAAGATCTCTCTTGATCAGTGCCGAGATCATCAATCAGGGGGGCCTGCCATCCAAGTGGGCATCTCCATTTTTCTTCCTCCTCGAGCTGGTTTCCGAGCCTGATAAAACCACCCTCCCCGGCCTCGCTCAACTGCTCCCCAGC
DNA 2: GCTGGGGAGCAGTTGAGCGAGGCCGGGGAGGGTGGTTTTATCAGGCTCGGAAACCAGCTCGAGGAGGAAGAAAAATGGAGATGCCCACTTGGATGGCAGGCCCCCCTGATTGATGATCTCGGCACTGATCAAGAGAGATCTTGGGCGGCAGGCCTCTCTCTCTCTCTCTTTCTCTCTGATGCACACACACGCAAGC
- binding result [1]: binds

B5: Ta6SFT-A1 probe (dsDNA)
DNA 1: ACTCCACGCACTAACTTTTTTAATAAGGTCTTCTGTGTGGGGAAAAAGACGGGATCTCTCTCTCTAGACATAATCAAAAGGGATTGTTTAACTCACACCAAATTTGGAGGAAAACTTTGACAGCAAAACAGGGGAAAACAGAGTTTCCATAGCGGGTTGGGGGTTCACTTCACAGTGGCGTAGATTGGA
DNA 2: TCCAATCTACGCCACTGTGAAGTGAACCCCCAACCCGCTATGGAAACTCTGTTTTCCCCTGTTTTGCTGTCAAAGTTTTCCTCCAAATTTGGTGTGAGTTAAACAATCCCTTTTGATTATGTCTAGAGAGAGAGATCCCGTCTTTTTCCCCACACAGAAGACCTTATTAAAAAAGTTAGTGCGTGGAGT
- binding result (MBP-STF S2): no binding
- binding result (MBP-STF S1): binds
- binding result [1]: binds
- binding result (MBP-STF S3): no binding
